For this experiment, the target named is T1, His-EGR1 (mouse, UniProt P08046 1-533).
T1 construct: Early growth response protein 1 (EGR1), mouse; plasmid pET28a-EGR1; also called His-tagged EGR1; source: E. coli BL21(DE3), purified (Ni-NTA)
The experiment can be described thus: pull-down; GST pull-down with affinity purified proteins; GST bait on GSH magnetic beads (BersinBio GST-pull down kit), His-EGR1 as prey; SDS-PAGE or Western blot. The settings on record: both partners purified. On the technique in general: Immunoblotting shows a protein as a band on a membrane.

T1 sequence (P08046 whole entry): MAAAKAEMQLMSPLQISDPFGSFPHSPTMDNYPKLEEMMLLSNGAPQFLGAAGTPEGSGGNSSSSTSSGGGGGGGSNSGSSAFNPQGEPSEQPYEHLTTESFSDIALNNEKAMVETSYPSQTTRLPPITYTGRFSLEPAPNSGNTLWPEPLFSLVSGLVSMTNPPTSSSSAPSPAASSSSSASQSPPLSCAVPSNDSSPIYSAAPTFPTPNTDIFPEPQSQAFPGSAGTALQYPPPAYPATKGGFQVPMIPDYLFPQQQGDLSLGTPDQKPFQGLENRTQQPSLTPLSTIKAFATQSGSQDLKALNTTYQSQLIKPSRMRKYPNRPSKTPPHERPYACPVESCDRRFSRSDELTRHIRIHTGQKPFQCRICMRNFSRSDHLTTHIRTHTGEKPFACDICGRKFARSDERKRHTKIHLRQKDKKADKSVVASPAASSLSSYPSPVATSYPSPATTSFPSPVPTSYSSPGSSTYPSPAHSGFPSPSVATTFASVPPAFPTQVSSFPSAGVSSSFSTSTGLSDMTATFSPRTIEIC

B1: GST-KAT2B-WT (enzyme, mouse, UniProt Q9JHD1 1-813, looked up)
chain: MAEAGGAGSPALPPAPPHGSPRTLATAAGSSASCGPATAVAAAGTAEGPGGGGSARIAVKKAQLRSAPRAKKLEKLGVYSACKAEESCKCNGWKNPNPSPTPPRGDLQQIIVSLTESCRSCSHALAAHVSHLENVSEEEMDRLLGIVLDVEYLFTCVHKEEDADTKQVYFYLFKLLRKSILQRGKPVVEGSLEKKPPFEKPSIEQGVNNFVQYKFSHLPSKERQTTIELAKMFLNRINYWHLEAPSQRRLRSPNDDISGYKENYTRWLCYCNVPQFCDSLPRYETTKVFGRTLLRSVFTIMRRQLLEQARQEKDKLPLEKRTLILTHFPKFLSMLEEEVYSQNSPIWDQDFLSASSRTSPLGIQTVISPPVTGTALFSSNSTSHEQINGGRTSPGCRGSSGLEANPGEKRKMNNSHAPEEAKRSRVMGDIPVELINEVMSTITDPAGMLGPETNFLSAHSARDEAARLEERRGVIEFHVVGNSLNQKPNKKILMWLVGLQNVFSHQLPRMPKEYITRLVFDPKHKTLALIKDGRVIGGICFRMFPSQGFTEIVFCAVTSNEQVKGYGTHLMNHLKEYHIKHEILNFLTYADEYAIGYFKKQGFSKEIKIPKTKYVGYIKDYEGATLMGCELNPQIPYTEFSVIIKKQKEIIKKLIERKQAQIRKVYPGLSCFKDGVRQIPIESIPGIRETGWKPSGKEKSKEPKDPEQLYSTLKNILQQVKNHPNAWPFMEPVKRTEAPGYYEVIRFPMDLKTMSERLRNRYYVSKKLFMADLQRVFTNCKEYNPPESEYYKCASILEKFFFSKIKEAGLIDK
notes: Histone acetyltransferase KAT2B, mouse; plasmid pGEX-4T-1-KAT2B; source: E. coli BL21(DE3), purified (glutathione column)
On to B1, for which the binding result is reported as “binds”.

Source of the values: publication PMC11831459, “Lactylation of Histone H3k18 and Egr1 Promotes Endothelial Glycocalyx Degradation in Sepsis‐Induced Acute Lung Injury” (Advanced Science, 2024).
